These results are taken from PMC4498786, “Dimerization-Induced Allosteric Changes of the Oxyanion-Hole Loop Activate the Pseudorabies Virus Assemblin pUL26N, a Herpesvirus Serine Protease” (PLoS Pathogens, 2015).

Data set [1] deals with the molecule itself. Description: small-angle X-ray scattering (SAXS).
The data set “crystal structure” concerns the molecule itself. Description: crystal structure.

B1: pseudorabies virus (PrV) assemblin pUL26N, protease domain of pUL26, residues 1-224 (enzyme)
chain: MGPVYVSGYLALYDRDGGELALTREIVAAALPPAGPLPINIDHRPRCDIGAVLAVVDDDRGPFFLGVVNCPQLGAVLARAVGPDFFGDMRLSDEERLLYLLSNYLPSASLSSRRLAPGEAPDETLFAHVALCVIGRRVGTIVVYDASPEAAVAPFRQLSARARSELLARAAESPDRERVWHMSEEALTRALLSTAVNNMLLRDRWELVAARRREAGVRGHTYLQ
notes: also called PrV protease; VP24
Regarding B1, the “stoichiometry N” value in data set [1] worked out at 2.

B2: diisopropyl fluorophosphate-inhibited pseudorabies virus (PrV) assemblin pUL26N, residues 1-224 (enzyme)
chain: MGPVYVSGYLALYDRDGGELALTREIVAAALPPAGPLPINIDHRPRCDIGAVLAVVDDDRGPFFLGVVNCPQLGAVLARAVGPDFFGDMRLSDEERLLYLLSNYLPSASLSSRRLAPGEAPDETLFAHVALCVIGRRVGTIVVYDASPEAAVAPFRQLSARARSELLARAAESPDRERVWHMSEEALTRALLSTAVNNMLLRDRWELVAARRREAGVRGHTYLQ
Turning to B2, the “stoichiometry N” value in the data set “crystal structure” was found to be 2.
